Target: thrombin

B1: FX-control+ of family 2 (insertion of the thrombin recognition site on fibrinogen = fibrinopeptide A; comparative) (protein)
chain: ANSFLEEMKKGHLERECMEETCSYEEAREVFEDSDKTNEFWNKYKDGDQCETSPCQNQGKCKDGLGEYTCTCLEGFEGKNCELFTRKLCSLDNGDCDQFCHEEQNSVVCSCARGYTLADNGKACIPTGPYPCGKQTLERRKRSVAQATSSSGEAPDSITWKPYDAADLDPTENPFDLLDFNQTQPERGDNNLTRDFLAEGGGVRIVGGQECKDGECPWQALLINEENEGFCGGTILSEFYILTAAHCLYQAKRFKVRVGDRNTEQEEGGEAVHEVEVVIKHNRFTKETYDFDIAVLRLKTPITFRMNVAPACLPERDWAESTLMTQKTGIVSGFGRTHEKGRQSTRLKMLEVPYVDRNSCKLSSSFIITQNMFCAGYDTKQEDACQGDSGGPHVTRFKDTYFVTGIVSWGEGCARKGKYGIYTKVTAFLKWIDRSMKTRGLPKAKSHAPEVITSSPLKEDQVDPRLIDGK
appearance of FXa after incubation with thrombin (Pefachrome FXa8595 hydrolysis at 405 nm): FX-IIa and FX-control+ are capable of being activated by thrombin and of releasing FXa
